{
  "source": "patent US20150344570A1",
  "about": "(published 2015)",
  "molecular_target": "T1, FcγRIIa R (human, UniProt P12318 34-217)",
  "T1 construct": "extracellular domain; also called FcgRIIa R type; 2aR",
  "T1 sequence (looked up)": "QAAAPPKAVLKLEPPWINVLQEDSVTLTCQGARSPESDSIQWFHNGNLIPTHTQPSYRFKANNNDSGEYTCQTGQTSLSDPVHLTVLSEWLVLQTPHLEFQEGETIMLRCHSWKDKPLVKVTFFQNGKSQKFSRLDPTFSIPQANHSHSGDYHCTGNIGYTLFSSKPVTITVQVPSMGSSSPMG",
  "assay": "SPR (Biacore), captured antibody, FcγR as analyte; relative binding activity",
  "data": [
    {"binder": "GpH7-A5/GpH7-B3 variant A330_19Q/GpL16-k0 (antibody, human IgG1, kappa, also called He Ab A330_19Q) heavy 1: not shown heavy 2: not shown light: DIVMTQSPLSLPVTPGEPASISCQASESLVHSNRNTYLHWYLQKPGQSPQLLIYKVSNRFSGVPDRFSGSGSGTDFTLKISRVEAEDVGVYYCSQNTHVPPTFGQGTKVEIERTVAAPSVFIFPPSDEQLKSGTASVVCLLNNFYPREAKVQWKVDNALQSGNSQESVTEQDSKDSTYSLSSTLTLSKADYEKHKVYACEVTHQGLSSPVTKSFNRGEC", "values": [
      {"measurement": "He/Con_2aR", "result": "104 % (GpH7-A5/GpH7-B3/GpL16-k0 = 100)"}
    ]},
    {"binder": "GpH7-A5/GpH7-B3 variant G237_20W/GpL16-k0 (antibody, human IgG1, kappa, also called He Ab G237_20W) heavy 1: not shown heavy 2: not shown light: DIVMTQSPLSLPVTPGEPASISCQASESLVHSNRNTYLHWYLQKPGQSPQLLIYKVSNRFSGVPDRFSGSGSGTDFTLKISRVEAEDVGVYYCSQNTHVPPTFGQGTKVEIERTVAAPSVFIFPPSDEQLKSGTASVVCLLNNFYPREAKVQWKVDNALQSGNSQESVTEQDSKDSTYSLSSTLTLSKADYEKHKVYACEVTHQGLSSPVTKSFNRGEC", "values": [
      {"measurement": "He/Con_2aR", "result": "138 % (GpH7-A5/GpH7-B3/GpL16-k0 = 100)"}
    ]},
    {"binder": "GpH7-A5/GpH7-B3 variant E333_08L/GpL16-k0 (antibody, human IgG1, kappa, also called He Ab E333_08L) heavy 1: not shown heavy 2: not shown light: DIVMTQSPLSLPVTPGEPASISCQASESLVHSNRNTYLHWYLQKPGQSPQLLIYKVSNRFSGVPDRFSGSGSGTDFTLKISRVEAEDVGVYYCSQNTHVPPTFGQGTKVEIERTVAAPSVFIFPPSDEQLKSGTASVVCLLNNFYPREAKVQWKVDNALQSGNSQESVTEQDSKDSTYSLSSTLTLSKADYEKHKVYACEVTHQGLSSPVTKSFNRGEC", "values": [
      {"measurement": "He/Con_2aR", "result": "103 % (GpH7-A5/GpH7-B3/GpL16-k0 = 100)"}
    ]},
    {"binder": "GpH7-A5/GpH7-B3 variant E333_15Y/GpL16-k0 (antibody, human IgG1, kappa, also called He Ab E333_15Y) heavy 1: not shown heavy 2: not shown light: DIVMTQSPLSLPVTPGEPASISCQASESLVHSNRNTYLHWYLQKPGQSPQLLIYKVSNRFSGVPDRFSGSGSGTDFTLKISRVEAEDVGVYYCSQNTHVPPTFGQGTKVEIERTVAAPSVFIFPPSDEQLKSGTASVVCLLNNFYPREAKVQWKVDNALQSGNSQESVTEQDSKDSTYSLSSTLTLSKADYEKHKVYACEVTHQGLSSPVTKSFNRGEC", "values": [
      {"measurement": "He/Con_2aR", "result": "101 % (GpH7-A5/GpH7-B3/GpL16-k0 = 100)"}
    ]},
    {"binder": "GpH7-A5/GpH7-B3 variant A330_15Y/GpL16-k0 (antibody, human IgG1, kappa, also called He Ab A330_15Y) heavy 1: not shown heavy 2: not shown light: DIVMTQSPLSLPVTPGEPASISCQASESLVHSNRNTYLHWYLQKPGQSPQLLIYKVSNRFSGVPDRFSGSGSGTDFTLKISRVEAEDVGVYYCSQNTHVPPTFGQGTKVEIERTVAAPSVFIFPPSDEQLKSGTASVVCLLNNFYPREAKVQWKVDNALQSGNSQESVTEQDSKDSTYSLSSTLTLSKADYEKHKVYACEVTHQGLSSPVTKSFNRGEC", "values": [
      {"measurement": "He/Con_2aR", "result": "102 % (GpH7-A5/GpH7-B3/GpL16-k0 = 100)"}
    ]},
    {"binder": "GpH7-A5/GpH7-B3 variant E333_09D/GpL16-k0 (antibody, human IgG1, kappa, also called He Ab E333_09D) heavy 1: not shown heavy 2: not shown light: DIVMTQSPLSLPVTPGEPASISCQASESLVHSNRNTYLHWYLQKPGQSPQLLIYKVSNRFSGVPDRFSGSGSGTDFTLKISRVEAEDVGVYYCSQNTHVPPTFGQGTKVEIERTVAAPSVFIFPPSDEQLKSGTASVVCLLNNFYPREAKVQWKVDNALQSGNSQESVTEQDSKDSTYSLSSTLTLSKADYEKHKVYACEVTHQGLSSPVTKSFNRGEC", "values": [
      {"measurement": "He/Con_2aR", "result": "103 % (GpH7-A5/GpH7-B3/GpL16-k0 = 100)"}
    ]},
    {"binder": "GpH7-A5/GpH7-B3 variant G237_06M/GpL16-k0 (antibody, human IgG1, kappa, also called He Ab G237_06M) heavy 1: not shown heavy 2: not shown light: DIVMTQSPLSLPVTPGEPASISCQASESLVHSNRNTYLHWYLQKPGQSPQLLIYKVSNRFSGVPDRFSGSGSGTDFTLKISRVEAEDVGVYYCSQNTHVPPTFGQGTKVEIERTVAAPSVFIFPPSDEQLKSGTASVVCLLNNFYPREAKVQWKVDNALQSGNSQESVTEQDSKDSTYSLSSTLTLSKADYEKHKVYACEVTHQGLSSPVTKSFNRGEC", "values": [
      {"measurement": "He/Con_2aR", "result": "133 % (GpH7-A5/GpH7-B3/GpL16-k0 = 100)"}
    ]},
    {"binder": "GpH7-A5/GpH7-B3 variant G237_19Q/GpL16-k0 (antibody, human IgG1, kappa, also called He Ab G237_19Q) heavy 1: not shown heavy 2: not shown light: DIVMTQSPLSLPVTPGEPASISCQASESLVHSNRNTYLHWYLQKPGQSPQLLIYKVSNRFSGVPDRFSGSGSGTDFTLKISRVEAEDVGVYYCSQNTHVPPTFGQGTKVEIERTVAAPSVFIFPPSDEQLKSGTASVVCLLNNFYPREAKVQWKVDNALQSGNSQESVTEQDSKDSTYSLSSTLTLSKADYEKHKVYACEVTHQGLSSPVTKSFNRGEC", "values": [
      {"measurement": "He/Con_2aR", "result": "121 % (GpH7-A5/GpH7-B3/GpL16-k0 = 100)"}
    ]},
    {"binder": "GpH7-A5/GpH7-B3 variant G237_10E/GpL16-k0 (antibody, human IgG1, kappa, also called He Ab G237_10E) heavy 1: not shown heavy 2: not shown light: DIVMTQSPLSLPVTPGEPASISCQASESLVHSNRNTYLHWYLQKPGQSPQLLIYKVSNRFSGVPDRFSGSGSGTDFTLKISRVEAEDVGVYYCSQNTHVPPTFGQGTKVEIERTVAAPSVFIFPPSDEQLKSGTASVVCLLNNFYPREAKVQWKVDNALQSGNSQESVTEQDSKDSTYSLSSTLTLSKADYEKHKVYACEVTHQGLSSPVTKSFNRGEC", "values": [
      {"measurement": "He/Con_2aR", "result": "116 % (GpH7-A5/GpH7-B3/GpL16-k0 = 100)"}
    ]},
    {"binder": "GpH7-A5/GpH7-B3 variant G236_14T/GpL16-k0 (antibody, human IgG1, kappa, also called He Ab G236_14T) heavy 1: not shown heavy 2: not shown light: DIVMTQSPLSLPVTPGEPASISCQASESLVHSNRNTYLHWYLQKPGQSPQLLIYKVSNRFSGVPDRFSGSGSGTDFTLKISRVEAEDVGVYYCSQNTHVPPTFGQGTKVEIERTVAAPSVFIFPPSDEQLKSGTASVVCLLNNFYPREAKVQWKVDNALQSGNSQESVTEQDSKDSTYSLSSTLTLSKADYEKHKVYACEVTHQGLSSPVTKSFNRGEC", "values": [
      {"measurement": "He/Con_2aR", "result": "103 % (GpH7-A5/GpH7-B3/GpL16-k0 = 100)"}
    ]},
    {"binder": "GpH7-A5/GpH7-B3 variant G237_09D/GpL16-k0 (antibody, human IgG1, kappa, also called He Ab G237_09D) heavy 1: not shown heavy 2: not shown light: DIVMTQSPLSLPVTPGEPASISCQASESLVHSNRNTYLHWYLQKPGQSPQLLIYKVSNRFSGVPDRFSGSGSGTDFTLKISRVEAEDVGVYYCSQNTHVPPTFGQGTKVEIERTVAAPSVFIFPPSDEQLKSGTASVVCLLNNFYPREAKVQWKVDNALQSGNSQESVTEQDSKDSTYSLSSTLTLSKADYEKHKVYACEVTHQGLSSPVTKSFNRGEC", "values": [
      {"measurement": "He/Con_2aR", "result": "156 % (GpH7-A5/GpH7-B3/GpL16-k0 = 100)"}
    ]}
  ]
}
